Laboratory results: patent US20100080800A1 (AC IMMUNE S A, published 2010)

What was measured:
[1] = target: Amyloid Beta (antigen of the Amyloid Beta ELISA) (UniProt P05067 672-713, limits assumed); assay: Amyloid Beta ELISA, antibody purified from NS0 cells
[2] = target: T1, soluble polymeric amyloid beta (UniProt P05067 672-713); assay: ELISA on plates coated with the amyloid preparation (55 µg/ml), AP-labelled anti-mouse IgG
T1 construct: also called Oligomer; polymeric soluble amyloid
Experimental: In order to evaluate the specificity of mC2 to different stages of polymerized amyloid protein, monomeric, polymeric soluble and fibrillic amyloid, an ELISA coated with these different stages of polymeric beta-amyloid was performed (FIG. 9). Monomers were prepared according to a modified method published by (Klein, 2002), soluble polymeric amyloid beta according to (Barghorn et al., 2005), whereas fibers were performed by incubation of amyloid (Bachem, Switzerland) with a final concentration of 1 μg/μl in Tris/HCl pH 7.4 at 37° C. for 5 days followed by a centrifugation step (10,000 rpm for 5 minutes). Then amyloid polymers were coated on an ELISA plates with a final concentration of 55 μg/ml and binding affinity ELISA by using an anti-mouse IgG monoclonal antibody (Jackson) labelled with alkaline phosphate was performed.

T1 sequence (P05067 672-713): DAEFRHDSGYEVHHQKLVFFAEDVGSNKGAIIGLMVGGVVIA
Amyloid Beta (antigen of the Amyloid Beta ELISA), sequence (P05067 672-713 limits assumed): as the sequence (P05067 672-713) above

B1: C2HuVH4/HuVK2 humanized antibody (antibody, human IgG4 S228P, kappa, V domains shown)
VH: EVQLVESGGGLVQPGGSLRLSCAASGFTFSSYGMSWVRQAPGKGLELVASINSNGGSTYYPDSVKGRFTISRDNAKNSLYLQMNSLRAEDTAVYYCASGDYWGQGTTVTVSS
VL: DIVMTQSPLSLPVTPGEPASISCRSSQSLVYSNGDTYLHWYLQKPGQSPQLLIYKVSNRFSGVPDRFSGSGSGTDFTLKISRVEAEDVGVYFCSQSTHVPWTFGQGTKVEIKR
notes: also called C2HuVHAF4 with C2HuVK2
Q: For B1, which “EC50 (read off the curve)” value [1] is on record?
A: ~4 ng/well

B2: mouse monoclonal antibody ACI-01-Ab7C2 (antibody, V domains shown)
VH: EVQLVESGGGLVQPGGSLKLSCAASGFTFSSYGMSWVRQTPDKRLELVASINSNGGSTYYPDSVKGRFTISRDNAKNTLYLQMSSLKSEDTAMYYCASGDYWGQGSTLTVSS
VL: DVVMTQTPLSLPVSLGDQASISCRSSQSLVYSNGDTYLHWYLQKPGQSPKLLIYKVSNRFSGVPDRFSGSGSGTDFTLKISRVEAEDLGVYFCSQSTHVPWTFGGGTKLEIK
notes: Mouse IgG2b/kappa from hybridoma FP-12H3-C2 (DSM ACC2750); also called mC2; Mouse ACI-01-Ab-7-C2
Q: With B2 as the binder, how does the “EC50 (read off the curve)” value [2] read?
A: ~0.4 µg/mL
